{"source": "patent US20140348819A1", "about": "“Methods of Treating Cancer” (Dana-Farber Cancer Institute, Inc., priority 2011, published 2014)", "molecules": {"B1": {"name": "Wnt1 (protein, UniProt P04628 28-370, looked up)", "Proto-oncogene Wnt-1": "ANSSGRWWGIVNVASSTNLLTDSKSLQLVLEPSLQLLSRKQRRLIRQNPGILHSVSGGLQSAVRECKWQFRNRRWNCPTAPGPHLFGKIVNRGCRETAFIFAITSAGVTHSVARSCSEGSIESCTCDYRRRGPGGPDWHWGGCSDNIDFGRLFGREFVDSGEKGRDLRFLMNLHNNEAGRTTVFSEMRQECKCHGMSGSCTVRTCWMRLPTLRAVGDVLRDRFDGASRVLYGNRGSNRASRAELLRLEPEDPAHKPPSPHDLVYFEKSPNFCTYSGRLGTAGTAGRACNSSSPALDGCELLCCGRGHRTRTQRVTERCNCTFHWCCHVSCRNCTHTRVLHECL"}}, "tested_on": "six V600E BRAF melanoma cell lines", "experiment": "Screening of recombinant RTK ligands for ability to confer resistance to BRAFi (PLX4720) or MEKi (PD184352) (Table 4)", "assay_type": "cell-based, human", "set-up": "ability of recombinant RTK ligand to confer resistance / ability of recombinant RTK ligand to confer resistance (screening value): scale not given here", "method": "HGF is the only one that can substantially confer drug resistance to the cell lines.\nThe complexity of the tumor microenvironment is much greater than an in vitro co-culture system. Therefore, the inventors explored whether the activation of other RTKs could result in a similar resistance as that observed with the activation of MET. To this end, six V600E BRAF melanoma cell lines were tested for their resistance to either BRAFi (PLX4720) or MEKi (PD184352) after the addition of 22 RTK ligands that have the potential of activating almost all known RTKs. […] The activation of a selected subset of these RTKs was confirmed by western blotting and by high throughput tyrosine kinase phosphorylation profiling.", "data": [{"molecule": "B1", "values": [{"measurement": "ability of recombinant RTK ligand to confer resistance (screening value)", "setting": "A2058, PD184352 - 1 uM, ligand 0.4 ng/ml", "value": 1.04}, {"measurement": "ability of recombinant RTK ligand to confer resistance (screening value)", "setting": "A2058, PD184352 - 1 uM, ligand 1.6 ng/ml", "value": 0.99}, {"measurement": "ability of recombinant RTK ligand to confer resistance (screening value)", "setting": "A2058, PD184352 - 1 uM, ligand 6.25 ng/ml", "value": 0.86}, {"measurement": "ability of recombinant RTK ligand to confer resistance (screening value)", "setting": "A2058, PD184352 - 1 uM, ligand 25 ng/ml", "value": 0.98}, {"measurement": "ability of recombinant RTK ligand to confer resistance (screening value)", "setting": "A2058, PD184352 - 1 uM, ligand 100 ng/ml", "value": 1.04}, {"measurement": "ability of recombinant RTK ligand to confer resistance (screening value)", "setting": "A2058, PLX4720 - 2 uM, ligand 0.4 ng/ml", "value": 1.04}, {"measurement": "ability of recombinant RTK ligand to confer resistance (screening value)", "setting": "A2058, PLX4720 - 2 uM, ligand 1.6 ng/ml", "value": 1.00}, {"measurement": "ability of recombinant RTK ligand to confer resistance (screening value)", "setting": "A2058, PLX4720 - 2 uM, ligand 6.25 ng/ml", "value": 1.01}, {"measurement": "ability of recombinant RTK ligand to confer resistance (screening value)", "setting": "A2058, PLX4720 - 2 uM, ligand 25 ng/ml", "value": 0.98}, {"measurement": "ability of recombinant RTK ligand to confer resistance (screening value)", "setting": "A2058, PLX4720 - 2 uM, ligand 100 ng/ml", "value": 1.07}, {"measurement": "ability of recombinant RTK ligand to confer resistance (screening value)", "setting": "C32, PD184352 - 1 uM, ligand 0.4 ng/ml", "value": 1.06}, {"measurement": "ability of recombinant RTK ligand to confer resistance (screening value)", "setting": "C32, PD184352 - 1 uM, ligand 1.6 ng/ml", "value": 0.96}, {"measurement": "ability of recombinant RTK ligand to confer resistance (screening value)", "setting": "C32, PD184352 - 1 uM, ligand 6.25 ng/ml", "value": 1.11}, {"measurement": "ability of recombinant RTK ligand to confer resistance (screening value)", "setting": "C32, PD184352 - 1 uM, ligand 25 ng/ml", "value": 1.02}, {"measurement": "ability of recombinant RTK ligand to confer resistance (screening value)", "setting": "C32, PD184352 - 1 uM, ligand 100 ng/ml", "value": 1.05}, {"measurement": "ability of recombinant RTK ligand to confer resistance (screening value)", "setting": "C32, PLX4720 - 2 uM, ligand 0.4 ng/ml", "value": 1.13}, {"measurement": "ability of recombinant RTK ligand to confer resistance (screening value)", "setting": "C32, PLX4720 - 2 uM, ligand 1.6 ng/ml", "value": 1.00}, {"measurement": "ability of recombinant RTK ligand to confer resistance (screening value)", "setting": "C32, PLX4720 - 2 uM, ligand 6.25 ng/ml", "value": 1.03}, {"measurement": "ability of recombinant RTK ligand to confer resistance (screening value)", "setting": "C32, PLX4720 - 2 uM, ligand 25 ng/ml", "value": 1.01}, {"measurement": "ability of recombinant RTK ligand to confer resistance (screening value)", "setting": "C32, PLX4720 - 2 uM, ligand 100 ng/ml", "value": 0.95}, {"measurement": "ability of recombinant RTK ligand to confer resistance (screening value)", "setting": "Colo 829, PD184352 - 1 uM, ligand 0.4 ng/ml", "value": 0.94}, {"measurement": "ability of recombinant RTK ligand to confer resistance (screening value)", "setting": "Colo 829, PD184352 - 1 uM, ligand 1.6 ng/ml", "value": 0.93}, {"measurement": "ability of recombinant RTK ligand to confer resistance (screening value)", "setting": "Colo 829, PD184352 - 1 uM, ligand 6.25 ng/ml", "value": 0.91}, {"measurement": "ability of recombinant RTK ligand to confer resistance (screening value)", "setting": "Colo 829, PD184352 - 1 uM, ligand 25 ng/ml", "value": 0.85}, {"measurement": "ability of recombinant RTK ligand to confer resistance (screening value)", "setting": "Colo 829, PD184352 - 1 uM, ligand 100 ng/ml", "value": 0.89}, {"measurement": "ability of recombinant RTK ligand to confer resistance (screening value)", "setting": "Colo 829, PLX4720 - 2 uM, ligand 0.4 ng/ml", "value": 0.94}, {"measurement": "ability of recombinant RTK ligand to confer resistance (screening value)", "setting": "Colo 829, PLX4720 - 2 uM, ligand 1.6 ng/ml", "value": 0.92}, {"measurement": "ability of recombinant RTK ligand to confer resistance (screening value)", "setting": "Colo 829, PLX4720 - 2 uM, ligand 6.25 ng/ml", "value": 0.93}, {"measurement": "ability of recombinant RTK ligand to confer resistance (screening value)", "setting": "Colo 829, PLX4720 - 2 uM, ligand 25 ng/ml", "value": 0.06}, {"measurement": "ability of recombinant RTK ligand to confer resistance (screening value)", "setting": "Colo 829, PLX4720 - 2 uM, ligand 100 ng/ml", "value": 0.93}, {"measurement": "ability of recombinant RTK ligand to confer resistance (screening value)", "setting": "G-361, PD184352 - 1 uM, ligand 0.4 ng/ml", "value": 0.99}, {"measurement": "ability of recombinant RTK ligand to confer resistance (screening value)", "setting": "G-361, PD184352 - 1 uM, ligand 1.6 ng/ml", "value": 1.00}, {"measurement": "ability of recombinant RTK ligand to confer resistance (screening value)", "setting": "G-361, PD184352 - 1 uM, ligand 6.25 ng/ml", "value": 0.93}, {"measurement": "ability of recombinant RTK ligand to confer resistance (screening value)", "setting": "G-361, PD184352 - 1 uM, ligand 25 ng/ml", "value": 0.96}, {"measurement": "ability of recombinant RTK ligand to confer resistance (screening value)", "setting": "G-361, PD184352 - 1 uM, ligand 100 ng/ml", "value": 0.93}, {"measurement": "ability of recombinant RTK ligand to confer resistance (screening value)", "setting": "G-361, PLX4720 - 2 uM, ligand 0.4 ng/ml", "value": 0.94}, {"measurement": "ability of recombinant RTK ligand to confer resistance (screening value)", "setting": "G-361, PLX4720 - 2 uM, ligand 1.6 ng/ml", "value": 0.97}, {"measurement": "ability of recombinant RTK ligand to confer resistance (screening value)", "setting": "G-361, PLX4720 - 2 uM, ligand 6.25 ng/ml", "value": 1.01}, {"measurement": "ability of recombinant RTK ligand to confer resistance (screening value)", "setting": "G-361, PLX4720 - 2 uM, ligand 25 ng/ml", "value": 0.97}, {"measurement": "ability of recombinant RTK ligand to confer resistance (screening value)", "setting": "G-361, PLX4720 - 2 uM, ligand 100 ng/ml", "value": 0.98}, {"measurement": "ability of recombinant RTK ligand to confer resistance (screening value)", "setting": "SK-MEL-5, PD184352 - 1 uM, ligand 0.4 ng/ml", "value": 0.02}, {"measurement": "ability of recombinant RTK ligand to confer resistance (screening value)", "setting": "SK-MEL-5, PD184352 - 1 uM, ligand 1.6 ng/ml", "value": 0.91}, {"measurement": "ability of recombinant RTK ligand to confer resistance (screening value)", "setting": "SK-MEL-5, PD184352 - 1 uM, ligand 6.25 ng/ml", "value": 1.06}, {"measurement": "ability of recombinant RTK ligand to confer resistance (screening value)", "setting": "SK-MEL-5, PD184352 - 1 uM, ligand 25 ng/ml", "value": 1.02}, {"measurement": "ability of recombinant RTK ligand to confer resistance (screening value)", "setting": "SK-MEL-5, PD184352 - 1 uM, ligand 100 ng/ml", "value": 1.14}, {"measurement": "ability of recombinant RTK ligand to confer resistance (screening value)", "setting": "SK-MEL-5, PLX4720 - 2 uM, ligand 0.4 ng/ml", "value": 0.93}, {"measurement": "ability of recombinant RTK ligand to confer resistance (screening value)", "setting": "SK-MEL-5, PLX4720 - 2 uM, ligand 1.6 ng/ml", "value": 0.90}, {"measurement": "ability of recombinant RTK ligand to confer resistance (screening value)", "setting": "SK-MEL-5, PLX4720 - 2 uM, ligand 6.25 ng/ml", "value": 1.01}, {"measurement": "ability of recombinant RTK ligand to confer resistance (screening value)", "setting": "SK-MEL-5, PLX4720 - 2 uM, ligand 25 ng/ml", "value": 0.97}, {"measurement": "ability of recombinant RTK ligand to confer resistance (screening value)", "setting": "SK-MEL-5, PLX4720 - 2 uM, ligand 100 ng/ml", "value": 1.01}, {"measurement": "ability of recombinant RTK ligand to confer resistance (screening value)", "setting": "SK-MEL-28, PD184352 - 1 uM, ligand 0.4 ng/ml", "value": 0.99}, {"measurement": "ability of recombinant RTK ligand to confer resistance (screening value)", "setting": "SK-MEL-28, PD184352 - 1 uM, ligand 1.6 ng/ml", "value": 1.18}, {"measurement": "ability of recombinant RTK ligand to confer resistance (screening value)", "setting": "SK-MEL-28, PD184352 - 1 uM, ligand 6.25 ng/ml", "value": 0.95}, {"measurement": "ability of recombinant RTK ligand to confer resistance (screening value)", "setting": "SK-MEL-28, PD184352 - 1 uM, ligand 25 ng/ml", "value": 1.18}, {"measurement": "ability of recombinant RTK ligand to confer resistance (screening value)", "setting": "SK-MEL-28, PD184352 - 1 uM, ligand 100 ng/ml", "value": 1.20}, {"measurement": "ability of recombinant RTK ligand to confer resistance (screening value)", "setting": "SK-MEL-28, PLX4720 - 2 uM, ligand 0.4 ng/ml", "value": 1.02}, {"measurement": "ability of recombinant RTK ligand to confer resistance (screening value)", "setting": "SK-MEL-28, PLX4720 - 2 uM, ligand 1.6 ng/ml", "value": 1.25}, {"measurement": "ability of recombinant RTK ligand to confer resistance (screening value)", "setting": "SK-MEL-28, PLX4720 - 2 uM, ligand 6.25 ng/ml", "value": 0.99}, {"measurement": "ability of recombinant RTK ligand to confer resistance (screening value)", "setting": "SK-MEL-28, PLX4720 - 2 uM, ligand 25 ng/ml", "value": 1.15}, {"measurement": "ability of recombinant RTK ligand to confer resistance (screening value)", "setting": "SK-MEL-28, PLX4720 - 2 uM, ligand 100 ng/ml", "value": 1.25}]}]}
